Data published in article PMC7982615, “Phase 1 study of telisotuzumab vedotin in Japanese patients with advanced solid tumors” (Cancer Medicine, 2021).

Test: Pharmacokinetics of teliso‐v conjugate and MMAE, noncompartmental
Format: in vivo, human
Conditions: for AUCinf, conjugate / Cmax, conjugate: geometric mean (%CV); for t1/2, conjugate: harmonic mean (min-max); for Tmax, conjugate: median (min-max)
Method: PK samples were also collected on cycles 2 and 4 predose and approximately 30 minutes after the end of infusion on day 1. PK parameters such as peak concentration (Cmax), time to peak concentration, area under the concentration‐time curve (AUC), and terminal half‐life (t1/2) were determined using noncompartmental methods.

[1] = first administration, cycle 1, across 2.4 and 2.7 mg/kg

For “Teliso‐v: antibody‐drug conjugate: anti–c‐Met humanized monoclonal antibody ABT‐700 coupled to monomethyl auristatin E through a valine‐citrulline linker, drug:antibody ratio approximately three”, which “Dose proportionality of systemic exposure” value (2.4 and 2.7 mg/kg, cycle 1) is on record?
The value was “approximately dose proportional”.

What about the t1/2 (N = 9, both dose levels) of the same substance?
The t1/2 was 3 to 4 days.

And the “AUCinf, conjugate” value (cycle 1, 2.4 mg/kg IV, n = 3)?
The value was 4437 (19) µg*h/mL.

What about the “Cmax, conjugate” value (cycle 1, 2.4 mg/kg IV, n = 3) of the same substance?
The value was 55.5 (26) µg/mL.

And the “t1/2, conjugate” value (cycle 1, 2.4 mg/kg IV, n = 3)?
The value was 4.18 (3.8–4.7) days.

And the “Tmax, conjugate” value (cycle 1, 2.4 mg/kg IV, n = 3)?
Its value is 1 (1–1) h.

And the “AUCinf, conjugate” value (cycle 1, 2.7 mg/kg IV, n = 6)?
Its value is 5202 (23) µg*h/mL.

What about the “Cmax, conjugate” value (cycle 1, 2.7 mg/kg IV, n = 6) of the same substance?
Its value is 63.0 (22) µg/mL.

And the “t1/2, conjugate” value (cycle 1, 2.7 mg/kg IV, n = 6)?
The value was 2.91 (2.5–3.9) days.

What about the “Tmax, conjugate” value (cycle 1, 2.7 mg/kg IV, n = 6) of the same substance?
The value was 1 (1–1) h.

What about the “AUC from zero to infinity, preliminary geometric mean” value [1] of the same substance?
The value was 4,400–5,200 µg*h/ml.

What about the “Serum Cmax, preliminary geometric mean” value [1] of the same substance?
The value was 55.5 to 63.0 µg/mL.

What about the “Accumulation in cycle 3” value (multiple dosing Q3 W) of the same substance?
Its value is 1.1–1.2 fold.
